Assay results as given in paper PMC8119438.
Numbering of substitutions follows the chain as printed. Numbers in names are those of the source. Blank lines part the entries; values can stand above or below the binder they belong to.

Target: GST-Rab12 (mouse) (UniProt P35283)
Test: pull-down; 20 μg GST, GST-Rab12 or GST-Rab12(K71R) on glutathione agarose beads, 18 h at 4 °C with 500 μg lysate of RBL cells transfected with T7-tagged RILP, RILP mutants, RILP-L1 or RILP-L2, 0.5 mM GTPγS; blot anti-T7 (Fig. 2b,c; Supplementary figure S3)

UniProt P35283, sequence (P35283 other isoform, or with tags, fused parts or gaps): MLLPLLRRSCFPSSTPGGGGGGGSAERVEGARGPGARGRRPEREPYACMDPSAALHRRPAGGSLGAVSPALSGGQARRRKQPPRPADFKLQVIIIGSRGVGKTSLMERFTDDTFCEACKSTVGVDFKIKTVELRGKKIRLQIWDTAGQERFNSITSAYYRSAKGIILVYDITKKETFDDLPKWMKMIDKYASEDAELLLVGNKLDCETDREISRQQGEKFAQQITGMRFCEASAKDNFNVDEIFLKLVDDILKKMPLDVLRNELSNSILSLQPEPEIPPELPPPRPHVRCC

percent by which the pulldown by Rab12 was impaired, against wild type RILP: 85%
B1: T7-RILP(L231A) (natural protein)
chain: MEPRRAAPRLPSQASSSVGAGSAAELVYHLAGALGTELQGLARRFGPDAAAGLVPLVVRALELLEKAAVGPAPDSLQVSAQQAEVELRRLREENQRLRQELGSGPQEERALLRQLKEVTDRQRDELRAHNRDLQRRSQETEALQEQLQRLLLINSELRHKLAAVQTQLRAAQDRERERQIAQDGSSQLAKEQSLEPDAATSDDPVDTQKQPGNLPEAVQCGFSREELKQIAQERNELKANVFLLKEELAYFQRELLTDHRVPGLLLEAMKVAVKKQRRKIKAKMLGTPEEAESSEDEDGSWLLLSNDKEDVPLVPESRIQNFFGLWYRGETEAPEAETSNPASSSLQKGEETPQQPHLQPVNSPPAPNS

percent by which the pulldown by Rab12 was inhibited, against wild type RILP: 90%
B2: T7-RILP(E233A) (natural protein)
chain: B1 chain with A231L, E233A
